Experimental data: US7341836B2, “Modified cyclic nucleotide gated ion channels” (The Regents of the University of Colorado, priority 2001, dated 2008)
Several values for one entry are separate records, joined by “and”; a condition that tells them apart may be missing. Identical values can stand only once.

B1: Δ61-90/C460W/E583M: modified rat olfactory cyclic nucleotide-gated ion channel containing the Δ61-90/C460W/E583M mutation, SEQ ID NO:7 (protein, listed as Rattus norvegicus)
chain: MMTEKSNGVKSSPANNHNHHPPPSIKANGKDDHRAGSRPQSVAADDDTSPELQRLAEMDTPRPDSFLERFRGPELQTVTTHQGDDKGGKDGEGKGTKKKFELFVLDPAGDWYYRWLFVIAMPVLYNWCLLVARACFSDLQRNYFVVWLVLDYFSDTVYIADLIIRLRTGFLEQGLLVKDPKKLRDNYIHTLQFKLDVASIIPTDLIYFAVGIHSPEVRFNRLLHFARMFEFFDRTETRTSYPNIFRISNLVLYILVIIHWNACIYYVISKSIGFGVDTWVYPNITDPEYGYLAREYIYCLYWSTLTLTTIGETPPPVKDEEYLFVIFDFLIGVLIFATIVGNVGSMISNMNATRAEFQAKIDAVKHYMQFRKVSKDMEAKVIKWFDYLWTNKKTVDEREVLKNLPAKLRAEIAINVHLSTLKKVRIFQDWEAGLLVELVLKLRPQVFSPGDYICRKGDIGKEMYIIKEGKLAVVADDGVTQYALLSAGSCFGEISILNIKGSKMGNRRTANIRSLGYSDLFCLSKDDLMEAVTEYPDAKKVLEERGREILMKMGLLDENEVAASMEVDVQEKLEQLETNMDTLYTRFARLLAEYTGAQQKLKQRITVLETKMKQNHEDDYLSDGINTPEPTAAE

Tests used:
PDE II = target: T1, PDE II (Homo sapiens, UniProt O00408); conditions: read-out: IC50, PDE II; cited from earlier work
T1 construct: host or cells: heterologously expressed human PDE; human heart
T1 sequence (O00408 whole entry): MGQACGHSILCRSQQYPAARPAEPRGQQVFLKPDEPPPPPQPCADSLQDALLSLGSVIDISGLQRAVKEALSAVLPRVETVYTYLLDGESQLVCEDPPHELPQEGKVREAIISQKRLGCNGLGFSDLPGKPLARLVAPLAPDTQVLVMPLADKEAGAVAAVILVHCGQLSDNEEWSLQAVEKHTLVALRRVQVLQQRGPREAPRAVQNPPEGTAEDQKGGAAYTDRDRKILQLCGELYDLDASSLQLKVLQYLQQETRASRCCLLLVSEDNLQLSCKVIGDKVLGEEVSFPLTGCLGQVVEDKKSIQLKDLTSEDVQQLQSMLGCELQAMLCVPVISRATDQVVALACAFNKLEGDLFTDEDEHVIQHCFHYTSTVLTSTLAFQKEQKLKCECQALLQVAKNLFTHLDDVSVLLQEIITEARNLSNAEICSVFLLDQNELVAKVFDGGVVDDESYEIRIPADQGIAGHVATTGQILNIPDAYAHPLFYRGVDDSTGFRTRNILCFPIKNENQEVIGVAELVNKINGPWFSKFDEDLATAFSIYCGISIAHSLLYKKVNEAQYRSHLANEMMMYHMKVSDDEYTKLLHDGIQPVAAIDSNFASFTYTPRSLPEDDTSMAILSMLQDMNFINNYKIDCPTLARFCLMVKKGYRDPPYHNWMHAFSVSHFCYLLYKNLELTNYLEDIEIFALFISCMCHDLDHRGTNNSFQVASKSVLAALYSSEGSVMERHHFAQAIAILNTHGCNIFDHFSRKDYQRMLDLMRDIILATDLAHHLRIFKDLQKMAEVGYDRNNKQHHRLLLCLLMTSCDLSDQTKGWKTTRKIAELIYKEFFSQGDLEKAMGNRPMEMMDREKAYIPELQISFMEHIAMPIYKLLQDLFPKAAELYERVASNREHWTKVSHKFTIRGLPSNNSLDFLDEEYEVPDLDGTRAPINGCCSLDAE

[1] = test system: PDE activity in GH4C1 cells; assay: Effect of PDE inhibitors, forskolin and VIP on cAMP levels (Ca2+ influx through CNG channels); type: cell-based, rat; conditions: basal cAMP; C460W/E583M channels; inhibitor concentration (μM)
Description: To further test the utility of this approach, PDE activity in excitable GH4C1 pituitary cells was examined. In all of the experiments shown (See, FIGS. 13-14, and Table 2), 1 μM nimodipine was added at time zero to block Ca^2+ influx though voltage-gated Ca^2+ channels (triggered by membrane depolarization due to Ca^2+ and Na^+ influx through CNG channels). […] FIGS. 13 and 14 each depict experiments done on a single batch of cells. As before, similar results were obtained on three other batches. In the experiments that produced the data shown in Table 2, cAMP concentrations were monitored using Ca^2+ influx through C460W/E583M channels. […] Either 100 μM IBMX or vehicle (-IBMX; control) were added at time zero. Then, 50 μM forskolin were added at 180 seconds d(ΔF/F0)/dt, which is proportional to the Ca^2+ influx rate, was estimated as described in the Examples. Data are provided as mean±standard error. IBMX or vehicle was added at 60 seconds (first arrow in FIG. 13). Either 10 μM forskolin or 100 nM VIP were added at 240 seconds (second arrow in FIG. 13). In the absence of IBMX, large forskolin or VIP-induced increases in Ca^2+ influx were observed. […] This level of basal AC activity was quite different from that observed in HEK-293 cells (See, FIGS. 9 and 10). 1 μM nimodipine was added at time 0 to block endogenous voltage-gated Ca^2+ channels.
To identify the PDE family or families that regulate the local cAMP concentration in GH4C1 cells, cAMP accumulation was monitored in the presence and absence of PDE inhibitors (See, Table 2). Again, the high cAMP affinity C460W/E583M channels were used. PDE inhibitors were added at 60 s. Although the addition of IBMX alone triggered Ca^2+ influx, 10 μM forskolin were added at 240 s as a positive control for CNG channel activity. […] This PDE is likely to have a low Km for cAMP because it is capable of regulating cAMP at concentrations too low for the WT or Δ61-90/C460W/E583M channels to detect. Thus, it is contemplated that a Ca^2+-CaM stimulated PDE (type I) is primarily responsible for controlling basal cAMP signals in GH4C1 cells.
In addition, PDE activity was monitored using Δ61-90/C460W/E583M channels to detect changes in cAMP concentration (See, FIG. 14). PDE inhibitors and forskolin were added as described above. With this construct, it was not possible to observe changes in cAMP concentration due to inhibition of PDE activity alone. […] Inhibitors specific to other PDE types had no effect on the forskolin-induced Ca^2+ influx (data not shown). […] It is contemplated that Ca^2+ influx through the C460W/E583M channels was saturated at cAMP concentrations below the Km for this PDE. Thus, it is contemplated that there are two different PDE types that regulate local cAMP signals in GH4C1 cells: a low Km, 8-methoxymethyl-IBMX sensitive PDE (type I); and a high Km, RO-20-1724-, rolipram-sensitive PDE (type IV).
GH4C1 rat pituitary cells (ATCC) were maintained in 13 mL Ham's F-10 medium (Life Technologies) supplemented with 14.3 mM NaHCO3, 15% donor horse serum (Gemini), and 2.5% fetal bovine serum, pH 6.8, in 75 cm^2 flasks at 37° C. in a humidified atmosphere of 95% air and 5% CO2. Cells were split weekly (1:4) and washed with fresh medium twice weekly. Cells were plated at ˜60% confluence in 100 mm culture dishes twenty-four hours prior to infection with the CNG-channel-encoding adenovirus constructs (multiplicity of infection=50 plaque forming units per cell). Forty-eight hours post-infection cells were detached, resuspended in serum-containing medium, and assayed within 12 hours.
In this Example, experiments conducted to examine the response of excitable GH4C1 pituitary cells to stimulation by either forskolin or the hormone vasoactive intestinal peptide (VIP), in the presence of absence of PDE inhibitors are described. […]

PDE III = conditions: cited from earlier work
[2] = test system: rat olfactory CNG channel α subunit; assay: Excised inside-out patch recordings, cyclic nucleotide dose-response of CNG channel constructs; type: biochemical; conditions: for Imax^cGMP/Imax^cAMP: current at saturating cGMP divided by current at saturating cAMP
Description: As described in greater detail herein, the effects of modifications to CNG channels were assessed using the Hill equation, I/Imax=[cNMP]^N/([cNMP]^N+K1/2^N), where I/Imax is the fraction of maximal current, cNMP represents cyclic nucleotide, K1/2 is the concentration that gives half-maximal current, and N is the Hill coefficient, an index of cooperativity. I/Imax^cGMP/Imax^cAMP is the current induced by saturating cGMP divided by the current induced by saturating cAMP. Data (mean±standard deviation of three experiments) were obtained from excised membrane patches using standard patch clamp techniques.
To assess the cyclic nucleotide sensitivity of different CNG channel constructs, excised, inside-out patch recordings were made at room temperature (20-21° C.) using an Axopatch-200A patch clamp amplifier (Axon Instruments Inc.). Pipettes were pulled from borosilicate glass and heat polished. Pipettes were lowered onto the cells and gigaohm seals were formed. Patches were excised by shearing cells from the pipette with a jet of liquid. Ionic currents were elicited by 250 ms pulses to membrane potentials of +50 and −50 mV from a holding potential of 0 mV. Current records were sampled at five times the filter setting and stored on an IBM compatible computer. Records were corrected for errors due to series resistance (pipette resistance was 4.1 ±0.1 MΩ). Both the pipette and bath solutions contained (mM): 130 NaCl, 2 HEPES, 0.02 EDTA, and 1 EGTA, pH 7.6. Cyclic nucleotide-induced currents were obtained from the difference between currents in the presence and absence of cyclic nucleotides. Dose response curves for cAMP and cGMP were obtained at +50 and −50 mV in the same patch. The effects of the modifications were assessed using the Hill equation, I/Imax=[cNMP]^N/([cNMP]^N+K1/2^N), where I/Imax is the fraction of maximal current, cNMP represents cyclic nucleotide, K1/2 is the concentration that gives half-maximal current, and N is the Hill coefficient, an index of cooperativity. K1/2 and N for cAMP were 36±5 μM, 10±2 μM, 1.0±0.3 μM, and […] for WT, E583M, C460/E583M, and Δ61-90/C460W/E583M channels, respectively (See, Rich et al., J. Gen. Physiol. [2001], supra).
The cyclic nucleotide sensitivity of the C460W/E583M CNG channel was assessed in excised, inside-out patches as known in the art (See, Rich et al. [2001], supra). K1/2 and N were 1.1±0.3 μM and 2.1±0.4 at +50 mV; and 1.0±0.3 μM and 2.0 ±0.3 at −50 mV (n=11). With these values, the cAMP concentration could be calculated from currents measured in perforated patch experiments (Rich et al. Proc. Natl. Acad. Sci. [2001], supra).

[3] = test system: HEK-293 cells expressing CNG channels; assay: Forskolin-induced cAMP accumulation monitored by Ca2+ influx (fura-2) through expressed CNG channels; type: cell-based, human; conditions: 100 μM IBMX; forskolin 0-50 μM
Description: Next, experiments were conducted to assess the ability of each channel construct to detect increases in local cAMP concentration. Changes in cAMP concentration were detected using fura-2 to monitor Ca^2+ influx through CNG channels, as described in the Examples. Ca^2+ influx induced by different concentrations of forskolin, an AC activator, in the presence of 100 μM IBMX, a nonselective PDE inhibitor was measured. This approach allowed comparisons to be made between the cAMP sensitivities of the different channels to changes in cAMP, regardless of variations in expression levels between experiments. In HEK-293 cells expressing the WT channel, addition of forskolin was followed by a brief delay and an increase in Ca^2+ influx (See, FIG. 7, Panel A). The delay decreased and the rate of Ca^2+ influx increased in a dose-dependent manner. Neither effect was saturated at 50 μM forskolin. In cells expressing the E583M channel, addition of forskolin was also followed by a brief delay and an increase in Ca^2+ influx (FIG. 7, Panel B). As with the WT channel, the delay and the initial rate of Ca^2+ influx were dose-dependent. […] In cells expressing the Δ61-90/C460W/E583M channel, addition of forskolin caused similar increases in Ca^2+ influx as the E583M channel, including saturation of the delay and rate of influx at 20 μM (compare FIG. 7, Panel B with FIG. 7, Panel D). The increased response of the modified channels to forskolin treatment is consistent with the apparent cAMP affinities measured in excised patches in the absence of Ca^2+-CaM (C460W/E583M>E583M˜Δ61-90/C460W/E583>WT channels). There are several factors that may have contributed to the apparent lack of a Ca^2+-CaM effect on the channels.
Briefly, HEK-293 were maintained in MEM (Life Technologies Inc.) supplemented with 26.2 mM NaHCO3, 10% (v/v) fetal bovine serum (Gemini), penicillin (50 μg/mL), and streptomycin ([…]), pH 7.0, at 37° C. in a humidified atmosphere of 95% air and 5% CO2. Cells were plated at ˜60% confluence in 100 mm culture dishes twenty-four hours prior to infection with the CNG-channel-encoding adenovirus constructs (multiplicity of infection=10 plaque forming units per cell). […] Twenty-four hours post-infection cells were detached with phosphate-buffered saline containing 0.03% EDTA, resuspended in serum-containing medium, and assayed within 12 hours.

Molecule	IC50 (PDE II) [nM]	d(ΔF/F0)/dt [1] [s⁻¹]	IC50 (PDE III) [nM]	Imax^cGMP/Imax^cAMP ([2]; +50 mV)	Imax^cGMP/Imax^cAMP ([2]; −50 mV)	current elicited by saturating cGMP as % of the current elicited by saturating cAMP ([2]; excised patches)	forskolin concentration at which delay and rate of Ca2+ influx saturated [3] [µM]
COc1cc2c(cc1OC)-c1c/c(=N\c3c(C)cc(C)cc3C)n(C)c(=O)n1CC2 [Trequinsin]	500 to 2000	0	0.3				
B1				0.16 ± 0.08	0.09 ± 0.06	16% and < 20%	20
